{
  "source": "paper doi:10.1101/2022.12.19.520972",
  "about": "(bioRxiv, 2022)",
  "binders": {"B1": {"name": "PEX14 NTD (1-104) (domain or fragment)", "chain": "MASSEQAEQPSQPSSTPGSENVLPREPLIATAVKFLQNSRVRQSPLATRRAFLKKKGLTDEEIDMAFQQSGTAADEPSSLGPATQVVPVQPPHLISQPYSPAGS"}, "B2": {"name": "PEX13 SH3-CTR (261-403) (domain or fragment)", "chain": "VTDSINWASGEDDHVVARAEYDFAAVSEEEISFRAGDMLNLALKEQQPKVRGWLLASLDGQTTGLIPANYVKILGKRKGRKTVESSKVSKQQQSFTNPTLTKGATVADSLDEQEAAFESVFVETNKVPVAPDSIGKDGEKQDL"}},
  "key": {"PEX14 NTD (1-104)": {"target": "B1", "assay": "ITC"}, "PEX13 SH3 (261-346) [1]": {"target": "T1, PEX13 SH3 (261-346) (human, UniProt Q92968 261-346)", "T1 sequence": "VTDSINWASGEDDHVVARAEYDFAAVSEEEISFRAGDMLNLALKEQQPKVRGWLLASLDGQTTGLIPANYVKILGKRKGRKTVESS", "assay": "ITC"}, "PEX13 SH3-CTR (261-403) [2]": {"target": "B2", "assay": "ITC"}, "PEX13 SH3-CTR (261-403) [3]": {"target": "B2", "assay": "NMR titration"}, "PEX13 SH3 (261-346) [4]": {"target": "T1, PEX13 SH3 (261-346)", "assay": "NMR titration"}},
  "data": [
    {"binder": "AEAHPWLSDYDDLTS", "note": "[PEX5 W7]", "values": [
      {"measurement": "binding result", "setting": "PEX14 NTD (1-104)", "result": "binds"}
    ]},
    {"binder": "PEX13 C-terminal peptide FxxxF to PEX5 W4 (domain or fragment) QQQSFTNPTLTKGATVADSLDEQEAAWYDEYVETNKVPVAPDSIGKDGEKQDL", "values": [
      {"measurement": "Kd", "setting": "PEX13 SH3 (261-346) [1]", "result": "~6", "unit": "µM"},
      {"measurement": "stoichiometry N", "setting": "PEX13 SH3 (261-346) [1]", "result": 1}
    ]},
    {"binder": "VSPARWAEEYLEQSE", "note": "[PEX5 W3]", "values": [
      {"measurement": "binding result", "setting": "PEX14 NTD (1-104)", "result": "binds"}
    ]},
    {"binder": "B1", "values": [
      {"measurement": "Kd", "setting": "PEX13 SH3-CTR (261-403) [2]", "result": 5.4, "unit": "µM"}
    ]},
    {"binder": "YNETDWSQEFISEVT", "note": "[PEX5 W2]", "values": [
      {"measurement": "binding result", "setting": "PEX14 NTD (1-104)", "result": "binds"}
    ]},
    {"binder": "B2", "values": [
      {"measurement": "stoichiometry N", "setting": "PEX14 NTD (1-104)", "result": 1}
    ]},
    {"binder": "PEX13 FxxxF (350-403) (domain or fragment) KQQQSFTNPTLTKGATVADSLDEQEAAFESVFVETNKVPVAPDSIGKDGEKQDL", "values": [
      {"measurement": "Kd", "setting": "PEX13 SH3 (261-346) [1]", "result": 27, "unit": "µM"},
      {"measurement": "Kd", "setting": "PEX14 NTD (1-104)", "result": 2.8, "unit": "µM"},
      {"measurement": "stoichiometry N", "setting": "PEX14 NTD (1-104)", "result": 1}
    ]},
    {"binder": "ALSENWAQEFLAAGD", "note": "[PEX5 W1]", "values": [
      {"measurement": "binding result", "setting": "PEX14 NTD (1-104)", "result": "binds"}
    ]},
    {"binder": "GTSDAWVDQFTRPVN", "note": "[PEX5 W6]", "values": [
      {"measurement": "binding result", "setting": "PEX14 NTD (1-104)", "result": "binds"}
    ]},
    {"binder": "AQAEQWAAEFIQQQG", "note": "[PEX5 W5]", "values": [
      {"measurement": "binding result", "setting": "PEX14 NTD (1-104)", "result": "binds"}
    ]},
    {"binder": "TATDRWYDEYHPEED", "note": "[PEX5 W4]", "values": [
      {"measurement": "Kd", "setting": "PEX14 NTD (1-104)", "result": 3.14, "unit": "µM"}
    ]},
    {"binder": "TRVPPPILPRPSQ", "note": "[PEX13 PxxP peptide (49-61)]", "values": [
      {"measurement": "binding result", "setting": "PEX13 SH3-CTR (261-403) [3]", "result": "binds"},
      {"measurement": "binding result", "setting": "PEX13 SH3 (261-346) [4]", "result": "binds"}
    ]}
  ]
}
